# Measurements from PMC10085699.
# Like-named read-outs stand apart in the source and are kept apart here.
# T1: SETX-HD-WT (Homo sapiens, UniProt Q7Z333 1674-2677)
# T1 sequence: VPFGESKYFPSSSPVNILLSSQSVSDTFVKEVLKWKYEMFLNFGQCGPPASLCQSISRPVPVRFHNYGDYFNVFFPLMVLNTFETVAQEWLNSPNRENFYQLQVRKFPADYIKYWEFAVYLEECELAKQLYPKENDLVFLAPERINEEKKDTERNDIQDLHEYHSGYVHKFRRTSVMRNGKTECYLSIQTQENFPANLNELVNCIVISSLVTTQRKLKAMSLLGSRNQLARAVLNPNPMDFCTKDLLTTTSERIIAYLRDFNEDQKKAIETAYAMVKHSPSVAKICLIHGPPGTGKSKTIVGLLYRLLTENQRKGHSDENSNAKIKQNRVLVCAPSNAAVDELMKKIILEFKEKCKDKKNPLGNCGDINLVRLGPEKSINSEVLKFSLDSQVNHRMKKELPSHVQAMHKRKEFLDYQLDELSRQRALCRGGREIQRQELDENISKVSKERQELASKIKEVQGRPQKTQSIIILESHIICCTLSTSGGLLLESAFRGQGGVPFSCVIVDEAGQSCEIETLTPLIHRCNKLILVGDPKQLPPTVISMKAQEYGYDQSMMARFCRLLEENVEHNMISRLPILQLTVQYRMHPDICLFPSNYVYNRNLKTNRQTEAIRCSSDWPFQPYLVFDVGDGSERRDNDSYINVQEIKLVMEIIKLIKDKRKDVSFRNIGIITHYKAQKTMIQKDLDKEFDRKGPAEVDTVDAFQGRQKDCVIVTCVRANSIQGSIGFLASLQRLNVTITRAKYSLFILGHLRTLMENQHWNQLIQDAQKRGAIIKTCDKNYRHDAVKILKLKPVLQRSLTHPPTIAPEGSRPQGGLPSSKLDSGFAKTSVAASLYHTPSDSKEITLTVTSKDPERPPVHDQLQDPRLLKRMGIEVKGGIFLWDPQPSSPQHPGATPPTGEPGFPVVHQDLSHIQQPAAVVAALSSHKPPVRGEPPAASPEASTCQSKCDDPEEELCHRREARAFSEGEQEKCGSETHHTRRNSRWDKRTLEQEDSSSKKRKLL
# T2: SETX-HD-V1884T (Homo sapiens, UniProt Q7Z333 1674-2677, V1884T)
# T2 sequence: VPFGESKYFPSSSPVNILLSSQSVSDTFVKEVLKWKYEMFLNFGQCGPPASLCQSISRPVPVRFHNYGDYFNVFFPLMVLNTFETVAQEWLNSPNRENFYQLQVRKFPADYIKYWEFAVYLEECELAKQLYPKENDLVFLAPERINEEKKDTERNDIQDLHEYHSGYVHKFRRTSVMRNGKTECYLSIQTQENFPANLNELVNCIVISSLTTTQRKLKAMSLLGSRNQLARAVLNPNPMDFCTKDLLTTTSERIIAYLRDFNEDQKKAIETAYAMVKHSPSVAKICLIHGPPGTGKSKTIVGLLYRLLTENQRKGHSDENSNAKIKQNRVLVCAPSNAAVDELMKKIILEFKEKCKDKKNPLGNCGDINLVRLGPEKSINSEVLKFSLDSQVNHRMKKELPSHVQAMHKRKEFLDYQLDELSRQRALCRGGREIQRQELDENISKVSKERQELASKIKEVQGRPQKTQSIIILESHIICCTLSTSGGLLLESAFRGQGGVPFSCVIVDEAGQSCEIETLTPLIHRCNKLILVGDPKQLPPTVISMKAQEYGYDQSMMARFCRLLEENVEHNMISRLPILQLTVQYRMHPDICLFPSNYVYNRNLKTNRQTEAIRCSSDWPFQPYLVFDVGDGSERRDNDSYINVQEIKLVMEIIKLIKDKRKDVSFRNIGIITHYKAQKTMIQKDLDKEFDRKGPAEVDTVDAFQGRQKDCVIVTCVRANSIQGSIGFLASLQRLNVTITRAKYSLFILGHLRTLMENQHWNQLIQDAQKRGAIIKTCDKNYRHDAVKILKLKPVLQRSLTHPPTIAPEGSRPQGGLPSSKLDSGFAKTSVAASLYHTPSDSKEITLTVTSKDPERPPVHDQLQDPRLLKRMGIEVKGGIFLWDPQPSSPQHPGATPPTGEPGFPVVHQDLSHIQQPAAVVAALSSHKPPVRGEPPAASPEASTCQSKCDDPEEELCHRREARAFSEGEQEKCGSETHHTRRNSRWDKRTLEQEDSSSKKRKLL
# T3: Sen1-HD (UniProt Q00416 1095-1904)
# T3 sequence: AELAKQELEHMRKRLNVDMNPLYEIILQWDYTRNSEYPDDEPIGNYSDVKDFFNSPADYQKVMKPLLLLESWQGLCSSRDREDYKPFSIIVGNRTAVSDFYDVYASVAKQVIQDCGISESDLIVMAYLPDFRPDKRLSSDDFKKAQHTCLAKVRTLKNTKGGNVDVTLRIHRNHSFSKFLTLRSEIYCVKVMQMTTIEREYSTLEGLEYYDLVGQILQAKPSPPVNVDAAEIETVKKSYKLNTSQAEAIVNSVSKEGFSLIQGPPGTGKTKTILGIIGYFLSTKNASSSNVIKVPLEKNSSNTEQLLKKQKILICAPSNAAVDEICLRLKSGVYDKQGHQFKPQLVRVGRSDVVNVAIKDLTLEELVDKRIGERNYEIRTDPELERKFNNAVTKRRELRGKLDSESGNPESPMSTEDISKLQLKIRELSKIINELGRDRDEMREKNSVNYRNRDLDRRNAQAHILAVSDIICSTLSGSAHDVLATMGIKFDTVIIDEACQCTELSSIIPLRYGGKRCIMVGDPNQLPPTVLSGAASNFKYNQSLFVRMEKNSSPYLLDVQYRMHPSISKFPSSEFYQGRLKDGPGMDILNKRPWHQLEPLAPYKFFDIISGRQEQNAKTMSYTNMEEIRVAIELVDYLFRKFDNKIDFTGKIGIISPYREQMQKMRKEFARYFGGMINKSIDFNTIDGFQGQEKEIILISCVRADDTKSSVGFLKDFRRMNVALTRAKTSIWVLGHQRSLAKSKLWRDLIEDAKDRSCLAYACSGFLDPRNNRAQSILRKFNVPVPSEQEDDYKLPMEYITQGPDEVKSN
# B1: 5'-oh RNA:DNA hybrid (pRMS678/pRMS690) (DNA:RNA)
# RNA: UUGUCUUCUCAUAAAUUUAAUCCCCGUACGCUUAUACUCCUUUAACUACCCAGUCUUCCCG
# DNA: CGGGAAGACTGGGTAGTTAA
# B2: blunt RNA:DNA hybrid (pRMS678/pRMS743) (DNA:RNA)
# RNA: UUGUCUUCUCAUAAAUUUAAUCCCCGUACGCUUAUACUCCUUUAACUACCCAGUCUUCCCG
# DNA: CGGGAAGACTGGGTAGTTAAAGGAGTATAAGCGTACGGGGATTAAATTTATGAGAAGACAA
# B3: 3'-oh RNA:DNA hybrid (pRMS678/pRMS689) (DNA:RNA)
# RNA: UUGUCUUCUCAUAAAUUUAAUCCCCGUACGCUUAUACUCCUUUAACUACCCAGUCUUCCCG
# DNA: TTAAATTTATGAGAAGACAA
# B4: 5'-oh R-loop (pRMS217/219/222) (mixed)
# DNA 1: GACGCTGCCGAATTCTACCAGTGCCTTGCTAGGACATCTTTGCCCACCTGCAGGTTCACCC
# DNA 2: GGGTGAACCTGCAGGTGGGCGGCTGCTCATCGTAGGTTAGTTGGTAGAATTCGGCAGCGTC
# RNA: UAAGAGCAAGAUGUUCUAUAAAAGAUGUCCUAGCAAGGCAC
# B5: 3'-oh R-loop (pRMS217/219/626) (mixed)
# DNA 1: GACGCTGCCGAATTCTACCAGTGCCTTGCTAGGACATCTTTGCCCACCTGCAGGTTCACCC
# DNA 2: GGGTGAACCTGCAGGTGGGCGGCTGCTCATCGTAGGTTAGTTGGTAGAATTCGGCAGCGTC
# RNA: AAAGAUGUCCUAGCAAGGCACUAAGUCCUAGAUGUUCUAUA
# B6: R-loop, no overhang (pRMS217/219/223) (mixed)
# DNA 1: GACGCTGCCGAATTCTACCAGTGCCTTGCTAGGACATCTTTGCCCACCTGCAGGTTCACCC
# DNA 2: GGGTGAACCTGCAGGTGGGCGGCTGCTCATCGTAGGTTAGTTGGTAGAATTCGGCAGCGTC
# RNA: AAAGAUGUCCUAGCAAGGCAC
# Experiments:
# SETX-HD-WT [1] = target: T1, SETX-HD-WT; experiment: BLI
# SETX-HD-V1884T = target: T2, SETX-HD-V1884T; experiment: BLI
# Sen1-HD [2] = target: T3, Sen1-HD; experiment: BLI
# SETX-HD-WT [3] = target: T1, SETX-HD-WT; experiment: BLI; remark: listed apart in the source
# Sen1-HD [4] = target: T3, Sen1-HD; experiment: BLI; remark: listed apart in the source
# SETX-HD-WT [5] = target: T1, SETX-HD-WT; experiment: EMSA
# SETX-HD-WT [6] = target: T1, SETX-HD-WT; experiment: EMSA; remark: listed apart in the source
# SETX-HD-WT [7] = target: T1, SETX-HD-WT; experiment: EMSA; remark: listed apart in the source
# SETX-HD-WT [8] = target: T1, SETX-HD-WT; experiment: EMSA; remark: listed apart in the source
binder,measurement,setting,value
UUGUCUUCUCAUAAAUUUAAUCCCCGUACGCUUAUACUCCU (ssRNA) [ssRNA pRMS740 (41 nt)],Kd,SETX-HD-WT [1],4.6 nM
same,binding result,SETX-HD-V1884T,binds
same,Kd,Sen1-HD [2],3.7 nM
TTGTCTTCTCATAAATTTAATCCCCGTACGCTTATACTCCT (ssDNA) [ssDNA pRMS739 (41 nt)],Kd,SETX-HD-WT [3],2.8 nM
same,Kd,Sen1-HD [4],3.4 nM
B1,binding result,SETX-HD-WT [5],binds
B2,binding result,SETX-HD-WT [6],no binding
B3,binding result,SETX-HD-WT [7],binds
B4,binding result,SETX-HD-WT [8],binds
B5,binding result,SETX-HD-WT [8],binds
B6,binding result,SETX-HD-WT [8],binds
